Tests used:
Test in all cases: SPR
[1] = molecular target: HSA peptide 13 (human, UniProt P02768)
[2] = molecular target: HSA peptide 4 (human, UniProt P02768)
[3] = molecular target: HSA peptide 40 (human, UniProt P02768)

Kd [1]: 400 nM
Kd [2]: 57 nM
Kd [3]: 0.52 nM
B1: rituximab (antibody, V domains shown)
VH: QVQLQQPGAELVKPGASVKMSCKASGYTFTSYNMHWVKQTPGRGLEWIGAIYPGNGDTSYNQKFKGKATLTADKSSSTAYMQLSSLTSEDSAVYYCARSTYYGGDWYFNVWGAGTTVTVSA
VL: QIVLSQSPAILSASPGEKVTMTCRASSSVSYIHWFQQKPGSSPKPWIYATSNLASGVPVRFSGSGSGTSYSLTISRVEAEDAATYYCQQWTSNPPTFGGGTKLEIK
modifications: AlexaFluor 488 label (only in the ImageStream experiment, a3)

From article PMC5381215 (2017)
